Measurements: US20060034860A1 (CELLVIR, published 2006)

Tests used:
[1] = biological target: T1, Human RNUT1 (prey024605), prey fragments (Human, UniProt O95149 1-360); assay: yeast two-hybrid screen, bait IN (pB27), CEMC7 random primed cDNA prey library; table of bait-prey interactions
T1 construct: also called Snurportin1; Snurportin

[2] = biological target: T2, Human HBOA (prey001626), prey fragments (Human, UniProt O95251 1-611); assay: yeast two-hybrid screen, bait IN (pB27), CEMC7 oligo dT primed cDNA prey library; table of bait-prey interactions
T2 construct: also called HBO1

[3] = biological target: Human EIF3S3 (prey024567), prey fragments (Human, UniProt O15372 1-352); assay: as above
[4] = biological target: T3, PolyrC-Binding Protein PCBP1 (prey6634), prey fragments (Human, UniProt Q15365 1-356); assay: yeast two-hybrid screen, bait VPU_v1 (pB27), Human CEMC7 dT Primed prey library; table of bait-prey interactions
T3 construct: also called polyRC BP1; HNRPE1

[5] = biological target: T4, ATF6 alpha (prey34104, hATF6), prey fragments (Human, UniProt P18850 1-670); assay: yeast two-hybrid screen, bait TM_v1 (pB6), Human CEMC7 Random Primed prey library; table of bait-prey interactions
T4 construct: also called prey34106
T4 sequence: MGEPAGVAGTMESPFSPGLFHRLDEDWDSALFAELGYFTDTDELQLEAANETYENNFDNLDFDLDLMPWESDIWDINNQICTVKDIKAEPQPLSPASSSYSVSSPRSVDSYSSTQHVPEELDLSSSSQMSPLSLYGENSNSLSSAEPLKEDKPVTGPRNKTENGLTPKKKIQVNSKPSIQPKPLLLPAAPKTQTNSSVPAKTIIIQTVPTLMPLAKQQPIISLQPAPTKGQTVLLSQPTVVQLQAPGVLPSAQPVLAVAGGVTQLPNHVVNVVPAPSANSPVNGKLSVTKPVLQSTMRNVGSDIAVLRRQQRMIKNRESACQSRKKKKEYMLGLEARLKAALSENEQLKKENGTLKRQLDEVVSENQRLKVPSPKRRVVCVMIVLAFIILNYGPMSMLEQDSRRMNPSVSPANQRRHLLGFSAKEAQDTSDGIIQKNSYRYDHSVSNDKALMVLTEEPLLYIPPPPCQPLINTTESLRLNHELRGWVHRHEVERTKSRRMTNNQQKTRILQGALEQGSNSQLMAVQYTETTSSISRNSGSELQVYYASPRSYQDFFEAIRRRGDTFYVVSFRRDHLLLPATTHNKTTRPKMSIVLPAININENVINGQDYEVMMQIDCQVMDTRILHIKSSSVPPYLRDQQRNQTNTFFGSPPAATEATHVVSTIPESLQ

[6] = biological target: T5, sterol regulatory element binding protein 2 (hSREBF2, hgx33), prey fragments (Human, UniProt Q12772 1-1141); assay: as above
T5 construct: also called SREBP2
T5 sequence: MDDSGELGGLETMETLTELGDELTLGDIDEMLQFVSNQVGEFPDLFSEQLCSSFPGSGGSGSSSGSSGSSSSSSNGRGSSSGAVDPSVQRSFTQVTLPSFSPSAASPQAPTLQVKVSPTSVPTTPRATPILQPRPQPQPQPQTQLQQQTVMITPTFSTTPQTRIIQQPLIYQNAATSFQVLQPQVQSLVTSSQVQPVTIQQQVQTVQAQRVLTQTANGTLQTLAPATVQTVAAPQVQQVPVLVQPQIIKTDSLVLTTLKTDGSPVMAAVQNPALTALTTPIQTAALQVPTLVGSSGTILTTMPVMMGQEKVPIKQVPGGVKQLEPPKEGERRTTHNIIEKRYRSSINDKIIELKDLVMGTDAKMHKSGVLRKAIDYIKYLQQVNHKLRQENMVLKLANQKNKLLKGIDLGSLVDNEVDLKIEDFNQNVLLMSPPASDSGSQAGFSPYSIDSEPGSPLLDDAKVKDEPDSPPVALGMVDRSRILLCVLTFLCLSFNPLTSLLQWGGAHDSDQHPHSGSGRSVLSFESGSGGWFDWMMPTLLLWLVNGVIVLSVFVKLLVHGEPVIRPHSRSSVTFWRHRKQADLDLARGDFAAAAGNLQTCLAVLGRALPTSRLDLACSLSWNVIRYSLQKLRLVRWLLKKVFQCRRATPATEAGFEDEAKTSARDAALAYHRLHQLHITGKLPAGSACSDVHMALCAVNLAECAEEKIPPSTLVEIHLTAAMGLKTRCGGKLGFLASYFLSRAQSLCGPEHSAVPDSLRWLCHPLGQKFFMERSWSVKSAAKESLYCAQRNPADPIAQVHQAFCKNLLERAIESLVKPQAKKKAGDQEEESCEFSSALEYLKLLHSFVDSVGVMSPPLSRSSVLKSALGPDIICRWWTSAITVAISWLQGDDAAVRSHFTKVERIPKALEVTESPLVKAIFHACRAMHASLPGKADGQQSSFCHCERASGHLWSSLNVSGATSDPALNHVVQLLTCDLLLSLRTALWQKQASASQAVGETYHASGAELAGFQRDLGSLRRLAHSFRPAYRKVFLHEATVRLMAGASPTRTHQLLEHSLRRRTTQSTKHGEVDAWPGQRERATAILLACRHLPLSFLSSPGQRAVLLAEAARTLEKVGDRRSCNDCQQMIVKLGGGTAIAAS

[7] = biological target: T6, sterol regulatory element-binding protein 1 (hSREBF1, prey15532), prey fragments (Human, UniProt P36956 1-1147); assay: as above
T6 construct: also called SREBP1; hSREBP 1
T6 sequence: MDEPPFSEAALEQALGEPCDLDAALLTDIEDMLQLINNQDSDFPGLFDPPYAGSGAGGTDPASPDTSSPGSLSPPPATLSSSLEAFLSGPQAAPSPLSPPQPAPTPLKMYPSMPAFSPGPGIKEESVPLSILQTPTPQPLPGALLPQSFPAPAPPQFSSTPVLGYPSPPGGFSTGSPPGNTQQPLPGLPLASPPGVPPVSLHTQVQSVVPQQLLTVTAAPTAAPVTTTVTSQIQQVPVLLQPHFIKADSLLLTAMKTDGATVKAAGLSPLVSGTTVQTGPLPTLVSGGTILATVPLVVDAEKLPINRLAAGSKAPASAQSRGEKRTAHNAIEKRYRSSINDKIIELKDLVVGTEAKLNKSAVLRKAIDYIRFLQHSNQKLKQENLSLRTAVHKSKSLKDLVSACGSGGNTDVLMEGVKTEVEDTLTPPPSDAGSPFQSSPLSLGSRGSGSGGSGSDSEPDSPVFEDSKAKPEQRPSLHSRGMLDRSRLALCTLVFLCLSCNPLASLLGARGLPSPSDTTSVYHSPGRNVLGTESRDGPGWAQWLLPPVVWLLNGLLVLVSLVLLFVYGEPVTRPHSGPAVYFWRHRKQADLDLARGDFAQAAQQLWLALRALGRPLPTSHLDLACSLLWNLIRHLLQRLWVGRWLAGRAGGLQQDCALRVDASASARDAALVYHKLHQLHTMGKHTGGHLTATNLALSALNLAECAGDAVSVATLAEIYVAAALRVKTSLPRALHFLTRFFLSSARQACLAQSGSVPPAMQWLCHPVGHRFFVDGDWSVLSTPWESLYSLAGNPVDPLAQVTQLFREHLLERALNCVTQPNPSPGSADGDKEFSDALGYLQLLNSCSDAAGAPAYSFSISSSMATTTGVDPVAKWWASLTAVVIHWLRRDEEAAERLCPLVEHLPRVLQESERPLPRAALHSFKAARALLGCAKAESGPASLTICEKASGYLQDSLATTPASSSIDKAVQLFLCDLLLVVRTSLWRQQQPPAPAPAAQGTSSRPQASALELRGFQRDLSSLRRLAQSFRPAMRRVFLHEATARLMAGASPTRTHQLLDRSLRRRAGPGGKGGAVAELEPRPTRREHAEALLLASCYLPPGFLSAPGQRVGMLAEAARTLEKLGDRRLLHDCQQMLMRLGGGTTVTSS

T1 sequence (O95149 whole entry, the tested form may be a part): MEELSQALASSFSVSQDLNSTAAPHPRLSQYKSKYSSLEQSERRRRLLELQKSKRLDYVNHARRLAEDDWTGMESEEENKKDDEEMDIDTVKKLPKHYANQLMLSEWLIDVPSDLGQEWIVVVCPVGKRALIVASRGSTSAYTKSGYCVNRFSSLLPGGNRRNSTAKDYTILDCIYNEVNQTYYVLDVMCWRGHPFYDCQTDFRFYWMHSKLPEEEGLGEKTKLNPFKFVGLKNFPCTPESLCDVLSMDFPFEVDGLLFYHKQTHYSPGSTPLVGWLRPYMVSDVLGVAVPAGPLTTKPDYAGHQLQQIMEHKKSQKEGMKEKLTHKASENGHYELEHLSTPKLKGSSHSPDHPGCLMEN
Sequence of Human EIF3S3 (prey024567), prey fragments (O15372 whole entry, the tested form may be a part): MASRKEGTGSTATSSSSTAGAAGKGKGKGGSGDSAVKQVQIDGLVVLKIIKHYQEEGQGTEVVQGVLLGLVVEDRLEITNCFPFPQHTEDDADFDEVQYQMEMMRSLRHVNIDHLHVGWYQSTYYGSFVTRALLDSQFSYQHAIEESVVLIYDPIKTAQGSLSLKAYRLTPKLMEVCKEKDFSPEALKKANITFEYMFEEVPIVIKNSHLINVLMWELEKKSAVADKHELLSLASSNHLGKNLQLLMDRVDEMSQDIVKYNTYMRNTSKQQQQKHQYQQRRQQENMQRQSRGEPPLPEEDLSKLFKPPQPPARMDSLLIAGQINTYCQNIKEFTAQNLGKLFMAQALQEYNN
T2 sequence (O95251 whole entry, the tested form may be a part): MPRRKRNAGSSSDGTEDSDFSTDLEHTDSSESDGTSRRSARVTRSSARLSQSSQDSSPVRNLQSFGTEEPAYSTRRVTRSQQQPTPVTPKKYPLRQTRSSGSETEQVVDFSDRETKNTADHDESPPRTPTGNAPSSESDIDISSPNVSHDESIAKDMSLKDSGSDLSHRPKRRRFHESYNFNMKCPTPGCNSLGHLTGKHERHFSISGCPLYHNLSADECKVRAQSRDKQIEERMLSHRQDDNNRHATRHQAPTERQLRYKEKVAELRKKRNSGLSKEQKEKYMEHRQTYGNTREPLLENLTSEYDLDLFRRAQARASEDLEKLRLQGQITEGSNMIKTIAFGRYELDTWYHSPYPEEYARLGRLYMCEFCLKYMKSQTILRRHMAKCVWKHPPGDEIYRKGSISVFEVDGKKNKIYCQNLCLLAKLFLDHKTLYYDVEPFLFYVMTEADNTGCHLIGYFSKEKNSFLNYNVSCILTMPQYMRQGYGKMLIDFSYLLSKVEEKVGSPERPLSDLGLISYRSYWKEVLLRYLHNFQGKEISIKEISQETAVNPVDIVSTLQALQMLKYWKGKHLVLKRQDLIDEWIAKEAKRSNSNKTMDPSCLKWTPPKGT
T3 sequence (Q15365 whole entry, the tested form may be a part): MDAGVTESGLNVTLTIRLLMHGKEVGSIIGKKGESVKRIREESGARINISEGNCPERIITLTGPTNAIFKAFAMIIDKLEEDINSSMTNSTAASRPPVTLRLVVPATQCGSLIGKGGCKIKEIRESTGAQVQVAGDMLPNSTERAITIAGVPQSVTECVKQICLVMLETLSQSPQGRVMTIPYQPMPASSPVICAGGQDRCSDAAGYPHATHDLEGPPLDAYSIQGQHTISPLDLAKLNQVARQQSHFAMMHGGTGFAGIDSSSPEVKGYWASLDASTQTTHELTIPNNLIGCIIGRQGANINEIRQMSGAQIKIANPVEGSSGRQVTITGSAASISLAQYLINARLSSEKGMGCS

B1: HIV-1 Integrase (IN), bait IN (enzyme)
chain: FLDGIDKAQEEHEKYHSNWRAMASDFNLPPVVAKEIVASCDKCQLKGEAMHGQVDCSPGIWQLDCTHLEGKVILVAVHVASGYIEAEVIPAETGQETAYFLLKLAGRWPVTTIHTDNGSNFTSATVKAACWWAGIKQEFGIPYNPQSQGVVESMNKELKKIIGQVRDQAEHLKTAVQMAVFIHNFKRKGGIGGYSAGERIVDIIATDIQTKELQKQITKIQNFRVYYRDSRDPLWKGPAKLLWKGEGAVVIQDNSDIKVVPRRKAKIIRDYGKQMAGDDCVAGRQDED
Question: Does B1 bind [1]?
Answer: Result: binds

Question: Does B1 bind [2]?
Answer: Result: binds

Question: Does B1 bind [3]?
Answer: Result: binds

B2: HIV-1 Vpu, bait VPU_v1 (other)
chain: LQSLQVLAIVALVVATIIAIVVWTIVFIEYRKILRQRKIDRLINRITERAEDSGNESDGDQEELSALVERGHLAPWDVDDL
notes: It holds the N-terminal transmembrane anchor domain
Question: Does B2 bind [4]?
Answer: Result: binds

B3: cytoplasmic domain of HIV-1 Env TM Gp41, bait TM_v1 (other)
chain: VVLSIVNRVRQGYSPLSFQTHLPAQRGPDRPDGIEEEGGERDRDRSGPLVDGFLAIIWVDLRSLCLFSYHRLRDLLLIVTRIVELLGRRGWGVLKYWWNLLQYWIQELKNSAVSLLNATAIAVAEGTDRVIEILQRAFRAVLHIPVRIRQGLERALL
notes: also called TM cyto; TM Gp41 cytoplasmic domain
Question: Does B3 bind [5]?
Answer: Result: binds

Question: Does B3 bind [6]?
Answer: Result: binds

Question: Does B3 bind [7]?
Answer: Result: binds
